# T1: GST-PDZ 4-5 of PTPL1 (Homo sapiens, UniProt Q12923)
# T1 construct: GST-PDZ 4-5, residues 1762-1960; made in house; host or cells: E. coli
# T1 sequence (Q12923 1762-1960 isoform Q12923-3): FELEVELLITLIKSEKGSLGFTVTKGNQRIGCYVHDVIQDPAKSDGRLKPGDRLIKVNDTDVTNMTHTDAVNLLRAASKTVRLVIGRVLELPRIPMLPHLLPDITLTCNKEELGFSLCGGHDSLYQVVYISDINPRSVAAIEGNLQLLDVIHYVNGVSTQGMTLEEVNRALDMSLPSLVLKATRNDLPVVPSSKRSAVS
# T2: PDZ 4 of PTPL1 (GST-PDZ 4) (Homo sapiens, UniProt Q12923)
# T2 construct: GST-PDZ 4, residues 1762-1864; made in house; host or cells: E. coli
# T2 sequence (Q12923 1762-1864 isoform Q12923-3): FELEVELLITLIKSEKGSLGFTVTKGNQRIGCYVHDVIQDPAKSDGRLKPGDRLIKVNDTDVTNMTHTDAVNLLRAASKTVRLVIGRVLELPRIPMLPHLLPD
# Columns and labels:
# GST-PDZ 4-5 of PTPL1 = target: T1, GST-PDZ 4-5 of PTPL1; assay: Binding of GST-PDZ fusion proteins to C-terminal PARG peptide; conditions: peptide on Affigel 15 beads; 50 nM fusion protein; 4° C., 2 h; α-GST immunoblot
# Source text: (§1) To identify proteins that bind to the PDZ domains of PTPL1, regions of PTPL1 cDNA corresponding to the various PDZ domains were produced by polymerase chain reaction and subcloned into the GST fusion protein expression vector pGEX1λT (Pharmacia): GST-PDZ 1. amino acid residues 1066-1166 of PTPL1; GST-PDZ 2-3. residues 1340-1579; GST-PDZ 3, residues 1469-1579; GST-PDZ 4, residues 1762-1864; GST-PDZ 4-5, residues 1762-1960 and GST-PDZ 5, residues 1856-1960 (FIG. 1A). Domains and motifs indicated in FIG. 1A are: L, leucine zipper motif; Band 4.1, a domain of 300 amino acid residues with homology to the Band 4.1 superfamily; P, PDZ domain; PTP, protein tyrosine phosphatase catalytic domain; GST, glutathione S-transferase. The different expression vector constructs were transformed into E. coli. Glutathione S-transferase (GST) fusion proteins were produced and purified as described by Ridley and Hall (Cell 70: 389-399, 1992) and then subjected to sodium dodecyl sulfate (SDS)-gel electrophoresis.
# (§2) It has been shown that PDZ domains interact with the C-terminal ends of short peptides and that a valine residue at the absolute C-terminal end is important for binding (Kim et al., 1995; Komau et al., 1995; Saras et al., in preparation). […]
# [1] = target: T2, PDZ 4 of PTPL1 (GST-PDZ 4); assay: as above; conditions: peptide on Affigel 15 beads; 50 nM fusion protein; 4° C., 2 h; α-GST immunoblot
# Source text: as §1, §2
# Cdc42 = target: T3, Cdc42 (Homo sapiens, UniProt P60953); assay: GAP activity of PARG GAP domain (GTP hydrolysis, filter binding); format: biochemical; conditions: Cdc42 preloaded with γ-32P-GTP, 30° C.
# T3 construct: GST (N, cleaved yes); made in house; host or cells: E. coli
# T3 sequence (P60953 1-191 isoform P60953-1): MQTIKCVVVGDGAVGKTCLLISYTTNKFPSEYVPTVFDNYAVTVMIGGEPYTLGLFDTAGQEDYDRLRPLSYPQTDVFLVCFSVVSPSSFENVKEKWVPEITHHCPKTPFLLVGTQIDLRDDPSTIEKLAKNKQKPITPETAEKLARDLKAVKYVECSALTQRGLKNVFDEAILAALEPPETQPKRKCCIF
# Source text: (§3) In order to determine the GAP activity of PARG on proteins of the Rho family, the GAP domain of PARG was produced as a GST fusion protein in E. coli (FIG. 5A). Briefly, a DNA fragment coding for the GAP domain, i.e., amino acid residues 658-898, of PARG was produced by polymerase chain reaction and subcloned into pGEX1λT and referred to as GST-GAP. pGEX2T-based expression vectors containing RhoA, Rac1 and Cdc42 (G25K isoform) cDNAs were obtained from Dr. A. Hall (MRC Laboratory for Molecular Cell Biology and Department of Biochemistry, University College London, UK). These different expression vector constructs were transformed into E. coli. The GST fusion proteins were produced and purified essentially as described above in Example 1. Recombinant Rho, Rac and Cdc42 proteins were subjected to thrombin cleavage (Ridley and Hall, 1992).
# (§4) Recombinant Rho, Rac and Cdc42 were preloaded with γ-^32P-GTP and incubated for various time periods in the presence of the GST-GAP fusion protein or, as control, GST protein. Thereafter, the radioactivity bound to the GTPase was determined as a measurement of the GTP hydrolysis activity. Briefly, 200 nM aliquots of recombinant Rho, Rac and Cdc42 were incubated at 30° C. with 10 μCi γ-^32P-GTP in 20 mM Tris-HCI, pH 7.5, 25 mM NaCl, 4 mM EDTA, 0.1 mM dithiothreitol, and the nucleotide exchange was stopped after 10 min by the addition of 17 mM MgCl2. Proteins (100 nM GST, 1 nM or 20 nM of GST-GAP fusion protein) were added to the reaction mixture and aliquots of 5 μl were withdrawn and collected on nitrocellulose filters (HA, Millipore, Bedford, Mass.) at 3 min intervals. The filters were washed with cold buffer (50 mM Tris-HCI pH 7.5, 50 mM NaCl, 5 mM MgCl2), dried and subjected to scintillation counting. The amount of protein-bound radioactivity is expressed as the percentage of the total input.
# Rac = target: T4, Rac (Homo sapiens, UniProt P63000); assay: as above; format: biochemical; conditions: Rac preloaded with γ-32P-GTP, 30° C.
# T4 construct: GST (N, cleaved yes); made in house; host or cells: E. coli
# Source text: as §3, §4
# Rho = target: T5, Rho (Homo sapiens, UniProt P61586); assay: as above; format: biochemical; conditions: 1 nM GST-GAP; Rho preloaded with γ-32P-GTP; 30° C.
# T5 construct: GST (N, cleaved yes); made in house; host or cells: E. coli
# T5 sequence (P61586 whole entry): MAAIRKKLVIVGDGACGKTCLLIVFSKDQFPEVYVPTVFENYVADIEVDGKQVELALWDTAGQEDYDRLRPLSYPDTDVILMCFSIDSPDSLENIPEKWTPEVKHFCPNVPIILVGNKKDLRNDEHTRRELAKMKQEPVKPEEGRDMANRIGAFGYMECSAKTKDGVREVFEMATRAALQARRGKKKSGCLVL
# Source text: as §3, §4
Molecule,binding of GST-PDZ 4-5 to the peptide (GST-PDZ 4-5 of PTPL1),binding of GST-PDZ 4 to the peptide [1],GAP activity on Cdc42 (Cdc42; 1 nM GST-GAP),GAP activity on Cdc42 (Cdc42; 20 nM GST-GAP),GAP activity on Rac (Rac; 1 nM GST-GAP),GAP activity on Rac (Rac; 20 nM GST-GAP),GAP activity on Rho (Rho)
"PQFV (listed as Homo sapiens) [synthetic peptide, last 4 C-terminal amino acid residues of PARG]",bound,bound,,,,,
"GST-GAP fusion protein: GAP domain, amino acid residues 658-898 of PARG, produced as a GST fusion protein in E. coli (protein, left off: a dimerising Fc or GST, GAP domain, amino acid residues 658-898 of PARG, produced as a GST fusion protein in E. coli) GHQKLPGKIHLFGAEFTLVAKKEPDGIPFILKICASEIENRALCLQGIYRVCGNKIKTEKLCLALENGMHLVDISEFSSHDICDVLKLYLRQLPEPFILFRLYKEFIDLAKEIQHVNEEQETKKNSLEDKKWPNMCIEINRILLKSKDLLRQLPASNFNSLHFLIVHLKRVVDHAEENKMNSKNLGVIFGPSLIRPRPQTAPITISSLAEYSNQARLVEFLITYSQKIFDGSLQPQDVMCS",,,no GAP activity,active,no GAP activity,active,strong GAP activity
